Laboratory results from publication PMC8224932 (FEBS letters, 2020).
No end group written: not given here. TAMRA = carboxytetramethylrhodamine

Assays:
[1] = target: T1, ^15N,^13C-labeled Sin3A PAH1 (mouse, UniProt Q60520 119-195); assay: NMR titration
T1 sequence (looked up): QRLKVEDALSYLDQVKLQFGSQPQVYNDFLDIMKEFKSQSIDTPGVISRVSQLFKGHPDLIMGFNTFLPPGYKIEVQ

[2] = target: T2, GST-tagged Sin3A PAH1 (mouse, UniProt Q60520 119-195); assay: fluorescence polarisation
T2 sequence (looked up): T1 sequence (looked up)

Binder	binding result [1]	Kd [2] [µM]
EYDNYDELVAKSLLNLGKIAED (peptide, UniProt Q9UL68 193-214, looked up) [Myt1L^193−214 SID peptide (released from MBP)]	binds	
{TAMRA}-EYDNYDELVAKSLLNLGKIAED (peptide, UniProt Q9UL68 193-214, looked up) [TAMRA-conjugated Myt1L^193−214 SID peptide]		6 ± 0.9
